Assay results published in doi:10.1101/2020.06.11.146753, “Insights into glycan import by a prominent gut symbiont” (bioRxiv, 2020).

T1: Bt1763 (SusC) (Bacteroides thetaiotaomicron VPI-5482, UniProt Q8A6W3 26-1041)
T1 construct: Bt1763, SusC TonB-dependent transporter of the levan PUL, Bacteroides thetaiotaomicron VPI-5482; Untagged; isolated through the His6 tag on Bt1762; NTE invisible in the X-ray structures; plug domain absent from closed, empty transporters; also called SusC TonB-dependent transporter; source: B. thetaiotaomicron (Bt1762-his strain) grown on MM-fructose, outer membrane fraction in LDAO; purified …
T1 sequence (looked up): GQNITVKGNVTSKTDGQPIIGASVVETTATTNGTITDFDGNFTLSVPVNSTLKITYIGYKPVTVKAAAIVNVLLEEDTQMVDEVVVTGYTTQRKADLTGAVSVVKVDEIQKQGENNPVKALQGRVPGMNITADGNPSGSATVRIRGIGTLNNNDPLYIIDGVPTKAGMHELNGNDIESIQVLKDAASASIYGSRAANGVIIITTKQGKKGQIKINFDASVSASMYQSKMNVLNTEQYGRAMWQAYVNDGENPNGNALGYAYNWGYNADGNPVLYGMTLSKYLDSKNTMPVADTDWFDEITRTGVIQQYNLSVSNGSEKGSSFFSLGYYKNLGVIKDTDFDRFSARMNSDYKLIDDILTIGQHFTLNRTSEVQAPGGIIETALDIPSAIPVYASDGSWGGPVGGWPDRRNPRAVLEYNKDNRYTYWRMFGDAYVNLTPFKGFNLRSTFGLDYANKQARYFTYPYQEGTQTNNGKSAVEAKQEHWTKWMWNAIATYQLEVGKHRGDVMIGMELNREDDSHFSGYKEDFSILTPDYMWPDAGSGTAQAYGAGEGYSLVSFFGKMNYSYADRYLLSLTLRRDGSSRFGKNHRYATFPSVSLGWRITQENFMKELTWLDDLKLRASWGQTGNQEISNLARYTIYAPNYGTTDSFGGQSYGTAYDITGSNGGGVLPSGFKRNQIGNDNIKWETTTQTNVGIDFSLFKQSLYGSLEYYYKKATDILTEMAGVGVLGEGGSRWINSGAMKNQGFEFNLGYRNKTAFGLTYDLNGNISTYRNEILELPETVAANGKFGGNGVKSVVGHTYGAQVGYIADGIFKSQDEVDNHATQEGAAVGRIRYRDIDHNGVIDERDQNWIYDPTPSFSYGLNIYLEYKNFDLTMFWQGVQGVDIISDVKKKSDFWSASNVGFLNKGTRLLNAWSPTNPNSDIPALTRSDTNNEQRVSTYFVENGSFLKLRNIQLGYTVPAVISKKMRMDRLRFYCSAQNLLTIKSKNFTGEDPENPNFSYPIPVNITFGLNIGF


Assays:
[1] = target: T1, Bt1763 (SusC); test: crystal structure; Bt1762-63 purified from B. theta in 10 mM Hepes/100 mM NaCl/0.4% C8E4 pH 7.5; crystallised without ligand and after incubation with 2.5 mM β2,6 FOS; conditions: both partners purified
[2] = target: the molecule itself; test: native MS; purified Bt1762-63 in 0.5% C8E4, 0.2 M ammonium acetate, pH 6.9; ligand-free and with FOS fractions

binding result [1] | Binder | stoichiometry N [2]
binds | Bt1762 (SusD), C-terminal His6 tag, from the B. theta Bt1762-his strain (natural protein, Bacteroides thetaiotaomicron VPI-5482, UniProt Q8A6W4 19-570, looked up, lipid anchor (lipoprotein), Chromosomally tagged, expressed natively; always isolated together with Bt1763; also called SusD lid; WT Bt1762; source: B. thetaiotaomicron (Bt1762-his strain) grown on MM-fructose, outer membrane fraction in LDAO; purified with Bt1763 (IMAC, SEC); not shown: His6, C-terminal, kept) CDDFLDRQVPQGIVTGDQIASPEYVDNLVISAYAIWATGDDINSSFSLWNYDVRSDDCYKGGSGTEDGGVFNALEISKGINTTDWNINDIWKRLYQCITRANTALQSLDQMDEKTYPLKNQRIAEMRFLRGHAHFMLKQLFKKIVIVNDENMEPDAYNELSNTTYTNDEQWQKIADDFQFAYDNLPEVQIEKGRPAQAAAAAYLAKTYLYKAYRQDGADNALTGINEEDLKQVVKYTDPLIMAKGGYGLETDYSMNFLPQYENGAESVWAIQYSINDGTYNGNLNWGMGLTTPQILGCCDFHKPSQNLVNAFKTDSQGKPLFSTYDNENYEVATDNVDPRLFHTVGMPGFPYKYNEGYIIQKNDDWSRSKGLYGYYVSLKENVDPDCDCLKKGSYWASSLNHIVIRYADVLLMRAEALIQLNDGRITDAISLINEVRSRAAGSTMLIFNYKEDYGVNFKVTPYDLKAYAQDEAMKMLKWERRVEFGMESSRFFDLVRWGEAKDVINAYYVTEASRCSIYKNAGFTENKNEYLPVPFEQISASNGNYTQNFGW | 
 | Bt1762-63 SusCD complex (one Bt1762 and one Bt1763), the unit that pairs into SusC2D2 (complex, Bacteroides thetaiotaomicron VPI-5482, lipid anchor (lipoprotein), Bt1762 (SusD), Bacteroides thetaiotaomicron VPI-5482; as the chain of m1. numbers count on: the mature protein; Bt1763 (SusC), Bacteroides thetaiotaomicron VPI-5482; as the chain of m2. numbers count on: the mature protein; Used for the self-association of the SusCD unit into the SusC2D2 dimer; also called Bt1762-Bt1763; SusCD monomer; source: B. thetaiotaomicron (Bt1762-his strain) grown on …) chain 1: CDDFLDRQVPQGIVTGDQIASPEYVDNLVISAYAIWATGDDINSSFSLWNYDVRSDDCYKGGSGTEDGGVFNALEISKGINTTDWNINDIWKRLYQCITRANTALQSLDQMDEKTYPLKNQRIAEMRFLRGHAHFMLKQLFKKIVIVNDENMEPDAYNELSNTTYTNDEQWQKIADDFQFAYDNLPEVQIEKGRPAQAAAAAYLAKTYLYKAYRQDGADNALTGINEEDLKQVVKYTDPLIMAKGGYGLETDYSMNFLPQYENGAESVWAIQYSINDGTYNGNLNWGMGLTTPQILGCCDFHKPSQNLVNAFKTDSQGKPLFSTYDNENYEVATDNVDPRLFHTVGMPGFPYKYNEGYIIQKNDDWSRSKGLYGYYVSLKENVDPDCDCLKKGSYWASSLNHIVIRYADVLLMRAEALIQLNDGRITDAISLINEVRSRAAGSTMLIFNYKEDYGVNFKVTPYDLKAYAQDEAMKMLKWERRVEFGMESSRFFDLVRWGEAKDVINAYYVTEASRCSIYKNAGFTENKNEYLPVPFEQISASNGNYTQNFGW chain 2: GQNITVKGNVTSKTDGQPIIGASVVETTATTNGTITDFDGNFTLSVPVNSTLKITYIGYKPVTVKAAAIVNVLLEEDTQMVDEVVVTGYTTQRKADLTGAVSVVKVDEIQKQGENNPVKALQGRVPGMNITADGNPSGSATVRIRGIGTLNNNDPLYIIDGVPTKAGMHELNGNDIESIQVLKDAASASIYGSRAANGVIIITTKQGKKGQIKINFDASVSASMYQSKMNVLNTEQYGRAMWQAYVNDGENPNGNALGYAYNWGYNADGNPVLYGMTLSKYLDSKNTMPVADTDWFDEITRTGVIQQYNLSVSNGSEKGSSFFSLGYYKNLGVIKDTDFDRFSARMNSDYKLIDDILTIGQHFTLNRTSEVQAPGGIIETALDIPSAIPVYASDGSWGGPVGGWPDRRNPRAVLEYNKDNRYTYWRMFGDAYVNLTPFKGFNLRSTFGLDYANKQARYFTYPYQEGTQTNNGKSAVEAKQEHWTKWMWNAIATYQLEVGKHRGDVMIGMELNREDDSHFSGYKEDFSILTPDYMWPDAGSGTAQAYGAGEGYSLVSFFGKMNYSYADRYLLSLTLRRDGSSRFGKNHRYATFPSVSLGWRITQENFMKELTWLDDLKLRASWGQTGNQEISNLARYTIYAPNYGTTDSFGGQSYGTAYDITGSNGGGVLPSGFKRNQIGNDNIKWETTTQTNVGIDFSLFKQSLYGSLEYYYKKATDILTEMAGVGVLGEGGSRWINSGAMKNQGFEFNLGYRNKTAFGLTYDLNGNISTYRNEILELPETVAANGKFGGNGVKSVVGHTYGAQVGYIADGIFKSQDEVDNHATQEGAAVGRIRYRDIDHNGVIDERDQNWIYDPTPSFSYGLNIYLEYKNFDLTMFWQGVQGVDIISDVKKKSDFWSASNVGFLNKGTRLLNAWSPTNPNSDIPALTRSDTNNEQRVSTYFVENGSFLKLRNIQLGYTVPAVISKKMRMDRLRFYCSAQNLLTIKSKNFTGEDPENPNFSYPIPVNITFGLNIGF | 2
